Laboratory results from paper PMC8609903, “Novel Lung Targeting Cell Penetrating Peptides as Vectors for Delivery of Therapeutics” (Research Square, 2021).

Experiments:
[1] = test system: SARS-CoV-2 (strain USA_WA1/2020); format: cell-based; conditions: concentrations of 2, 0.2, and 0.02 μM, human bronchial epithelial cells
[2] = test system: human bronchial epithelial cells
[3] = test system: Rat cardiomyoblast H9C2 cells; conditions: 10μM peptide, 30 minutes, 37°C, N-terminal Cy5.5, C-terminal amide, FACs, biological triplicates, p<0.001
wild-type CD1 mice = assay: Biodistribution time course of Cy5.5 labeled R11A, ex-vivo IVIS imaging; conditions: 5mg/Kg Cy5.5 labeled R11A intravenous, 15-360 minutes, n=3
Description: Mice were euthanized at the end of the circulation period, perfused and fixed as before, and multiple organs harvested and ex-vivo IVIS imaging performed immediately.
Wild-type, 6-week old, female CD1 mice were purchased from Charles Rivers. After at least 48 hours of acclimatization after arriving in the animal colony, mice were weighed and anesthetized with an intraperitoneal injection of a 1:1 cocktail of Ketamine:Xylazine at 1–2μL/gm body weight. […] At the end of circulation time, mice were euthanized using inhalational CO2 as per IACUC-approved protocol, chest cavity opened, right atrium nicked and 3–5ml of 4% formalin injected through the left ventricular apex to perfusion fix the animals. Various organs were harvested, rinsed once in PBS and placed on a petri dish to be imaged using IVIS (Perkin- Elmer – S5 instrument). All mice were imaged using identical instrument settings (stage position, exposure time, binning, F-stop etc.). […] All time-points were tested in at least triplicate (n=3).

Compound | reduction of SARS-CoV-2 titers compared to virus controls [1] | uptake at 4°C [2] | Cy5.5 intensities, fold higher [3] [fold] | fluorescence in kidneys (wild-type CD1 mice) | fluorescence in liver (wild-type CD1 mice)
CCC(CC)COC(=O)[C@H](C)N[P@](=O)(OC[C@H]1O[C@@](C#N)(c2ccc3c(N)ncnn23)[C@H](O)[C@@H]1O)Oc1ccccc1 [Remdesivir] | statistically significant | – | – | – | –
APWHLSAQYSRT ({Cy5.5}-APWHLSAQYSRT-NH2) [S7A] | – | very little uptake | ~3 | – | –
APWHLSSQYSAT ({Cy5.5}-APWHLSSQYSAT-NH2) [R11A] | – | very little uptake | – | little fluorescence | decreased over time
